Results: patent publication US20090099093A1 (Stanford University, published 2009)
No end group written: not given here.

B1: RA peptide (RADSRADC) (peptide)
peptide: RADSRADC
B2: SF peptide (SFLLRN) (peptide)
peptide: SFLLRN
B3: PLG-OH (peptide)
peptide: Pro-Leu-Gly-OH

Target: Mushroom tyrosinase (mushroom, UniProt C7FF04 1-392)
Assay: cell-based or functional assay

Chain of Mushroom tyrosinase (C7FF04 1-392): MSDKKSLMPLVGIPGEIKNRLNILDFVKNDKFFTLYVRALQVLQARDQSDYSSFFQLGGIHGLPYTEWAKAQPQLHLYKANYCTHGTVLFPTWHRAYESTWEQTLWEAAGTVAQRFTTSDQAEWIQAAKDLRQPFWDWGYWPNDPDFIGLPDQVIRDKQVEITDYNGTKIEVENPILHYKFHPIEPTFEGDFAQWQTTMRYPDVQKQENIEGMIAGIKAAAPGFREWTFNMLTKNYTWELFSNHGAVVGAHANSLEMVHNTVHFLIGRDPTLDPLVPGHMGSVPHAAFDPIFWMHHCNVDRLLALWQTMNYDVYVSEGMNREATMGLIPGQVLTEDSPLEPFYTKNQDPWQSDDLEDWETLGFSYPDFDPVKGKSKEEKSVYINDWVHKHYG

| Binder | IC50 (inhibition of mushroom tyrosinase activity, dopachrome at 475 nm, L-tyrosine substrate) [mM] |
| --- | --- |
| B1 | 0.123 |
| B2 | 8 |
| B3 | 2.73 |
